Measured values reported in the DeepSol protein solubility set.

Assay: soluble on expression in E. coli; label from the status in PepcDB or PDB records

Sequence	soluble on expression in E. coli
MGSDKIHHHHHHDGDDMSSCSSHSSFGSEYSEENKVNCTIDNFPVQAIALERCDGTLDSLFTKENLAMKRPQLRSAMFQIVMSLRVLQKAFRFTHNDLHTNNVVWCATDRKYLFYKHNSKYYRVPTFGRIFKIIDFGRAIYRFRGETMCSDSYHPSGDAGSQYNCEPYFNPNKPLLEPHFGFDLARLGCSLYELVDAEDVDDNGIINEEKLGDVERMIVSWCRDDKGRNILFKRDGDERYPGFKLYKMIARTSHDHTPEKMLAGYVFDTYLMAAKKCKKQERLMDVDAIPDYTEVVVGGDGKEVNATS	not soluble
MGSDKIHHHHHHEDTTSSPEEDPLAPQNDDADLLLKPLIAKDPRTRGQRGPFAAMTGSYGRGGYGGSGGGAFGGFNGGYGQGGYGGGGDFGGGMGGGGYGGGGYGGGGDGGGGYGGYGGGGYGGMGGGPGGYGMGGYGGGGGGGGDFGGYGGGGMGGGGYGGGGDGGYGGGGFGGGGMGGYGGGMGGGGYGGGGMGGGGYGGGGDGGYGPSGGYGGGYGPGGGYGMGGGGGGGGCPNGECRGKK	not soluble
MGSDKIHHHHHHEELEYKGMNTLQISNVDDLISFYQYADDRIPLISGHRGGRGKGYPENSMETFENTLSYTPATFEIDPRLTKDSVIVLFHDDTLERTSNGTGKVSDYTWEELQNFRLKDPEGNITNYRIPTLEEAIRWARGKTILILDKKDVPMERTAQLITDMQAEPYVMITVHDGASARFFYEKNPNFMFEAFVKTKEAVQDYEDNGIPWSHIMAYVGPKITPEVREVIDMLHERGVMCMISTAPSDDKLSTPESRAEAYRMIIRQGVDIIESDRPIEVAEAISSLIPVSSSKGKFFSTL	not soluble
MGSDKIHHHHHHEPVSSISDANYWKSPDLFKAFNIGLHGLLRSQSSYNIFVLGEPRSDIYGDQPFGGEATQGVERFSYNTINAEFTGISNFANFYTTLNQINLMIRRTNETDLLGEAEKNYYLGQAYGLRAYIYFHLLRSWGDVIITTEPTLGSELDISHLDKAASPASEVMDLIKKDIDASEKAFGGDYSYKQGKCYWSKPATLMLKGEVYLWSGRQMGGGTGDYTVAKTALQDLQQNGNLKLQEKFTDVFSFNNKENSEMIFALHSGKEDDFMMWRDYNWRNNMVPQREYMAGYCDETGTPFLEIPGYNLQGLMRYQVKKDHYLKSFREGDTRLKGTLKAVYKKHEDGTLEYIAPIQYKFQGTTLEGSNERSWYDDYPIYRYADALLLLAEAKALLGEDPSTEINAVRERAYGSEYFNAHKNEVAYPNDKGSFYNDNPFEAGDENVMEAILKERLREFFFEGKRWYDLRRFGKDYVLKYTTAQESRLLWPINEGALTNNPALKQTPGY	not soluble
MGSDKIHHHHHHFVSIELKDRSLVNNQYKGKIKSANLSVDYEINQVMKDIDKLGLNTVNVPIIINVESINSDIMSIDNNSKEKAIKLIKKLNKKGISTILEAYPWIENGKLYETDWNPINKKRFFYTWQNAILNELIIDVANPLDVNVLNIGSNFVHLEEYQQNWGEIIDFVQSKFDGLVTYRTNWWYTKKDDLSSKLFYEQKLNNNFFDKLDFISIAAYFELSNKPVNTVDELISALHSSTVNNRGQNIKQEIYNLYKAHRKPIFFGELGFSNRESASSQPWNHTPSKAVNGEEQARCFEAYKKVFENEDWINGFSVFCVGKIDDEKNFYPSKESIKVIKSWYE	not soluble
MGSDKIHHHHHHGASVQDLSNTKDAIVESETTLAENNNEYSNKNSLFYSDISSYEIFTDVNSEAALKNLYYNIDEFIDSDSSDVIVKGNIIEIEYVYIDGCSYSVLTVDVERAYKGEVQETITVYEDGGYTRLSDEKEQIEAHADLSQYTEEEMENLLINHTFMGAEHSNVGDTVILFLKTNEGSILGDSYRINCSVFGRYTLNKDSYIRPEFIVENDNPEKITTYSNMDTFEFSVSKSMLEDKLSQQ	not soluble
MGSDKIHHHHHHGCEKEKSHTVLELFSESQSLSPKKDFYVNEDSIAIIEGLSCDGKNLIVNDYHSGCCYTLFDKKSGEYIARFGTIGQGPAELPSPCYGYLTESDFTVFDDQTRIVMKYSLDSLRNSRKKDGSPVRLAQYKIPEAQISKLIAIDDTTFLCAGTYKSRYQYLLFNKNDSVLDYGVDVYNAADSAFQTYTRYLSNQGNLVMNPEKHTFAGSINFSSNIDFFEIVNNKIELIKSLRLGDPINKPVNEEGIYYVDLTENTQTGYIDLSATSKYVYALYSDKKMYENNRKSDTVLVFDWDGNPIKKYSLDTDAYYIAVDSTQQSLFAAVKNSSSGWKIICYALD	not soluble
MGSDKIHHHHHHGQPSNDKKNVLPDWAFGGFERPQGANPVISPIENTKFYCPMTQDYVAWESNDTFNPAATLHDGKIVVLYRAEDKSGVGIGHRTSRLGYATSSDGIHFKREKTPVFYPDNDTQKKLEWPGGCEDPRIAVTAEGLYVMTYTQWNRHIPRLAIATSRNLKDWTKHGPAFAKAYDGKFFNLGCKSGSILTEVVNGKQVIKKIDGKYFMYWGEEHVFAATSEDLVNWTPYVNTDGSLRKLFSPRDGHFDSQLTECGPPAIYTPKGIVLLYNGKNSASRGDKRYTANVYAAGQALFDANDPTRFITRLDEPFFRPMDSFEKSGQYVDGTVFIEGMVYYKDKWYLYYGCADSKVGMAIYNPKKPAAADPLP	not soluble
MGSDKIHHHHHHILFELCFGLAVAQKNLGFIHNDLHSDNIMFKKCQQQFKYYQFHNKFFKVPTWCRETKVIDFARGILKVGKTTYFSDVFKNEGDAGGQYQYLNSQKNKKFNFHFDLARLATTIREFTENKKELQEIDNLLVDWCLNKNGDNFLEMDDDFSLYVMIASTADKCLPKDQIDNKIFRDFLISKEDIPAGEIIY	not soluble
MGSDKIHHHHHHINKDNITTDTAEESKQQDSNKKQELPTATYMGGSNTITEVCDELGSAGASHVDTFKEWVTDFADSAGKNAKLKDTWSDAYKMKADTVKCMDGWEKKHDYSDADCRMTAFLLLDGLLHAQSTEDSYSGTYLMFDTEAIDNVDRYEIIRQNKDMFTTLYGEKSITDDKHPEKTFSDNWKKYGFQIDSNCISLISIAIYDPDSDAMFVGHTGVLIKYSDYYLFVEKIAFEQPYQATKVNNMDELLSILSLRPEYFGEEKEAGPFVYNNGDYVGTLELQG	not soluble
MGSDKIHHHHHHISNNLANSSTIGYKTSNASFYSLVTGTGSTSNFTGAGVVASATQNVINQGVIVGTQNVTDLAVDGKGMFIVTDRSGSNELYYTRAGDFYPNADGDLVNSNNYYLQGYPTDRNGVPLTNTGNSGASLETINLAGATGAAKATSEMSIQAVLPAQATAGDSTAVPPVAAYTSSSDVEIYDSLGVAHTMTVKWTKMSDTKWTMTLYDPKLSSDMTGDATGAISSTTTGVTDVPANAGPPATSHGIAVDVEFTDQGLLKTPSVLALKITPDASNGTGAAISEIALNLGTAGKANGLSTYSNEDSDGKPAVDLKKVVQDGVTYGTYYSNTISKAGLVYANFTNGISYPIYQVPLAMFSNVNGLEAVSGTAYSATVKSGTPTYVTAGTGGSGGVSSGSVESSTVDTAAEFSKLIVSQQAYSAATQIISSNQEMFQNLISAKR	not soluble
MGSDKIHHHHHHKDPVINDLKDSEGNNISFTLNAPNNSSYTLMPENASSIIDIFTCEQPDYGFAAGVTYTVQVCEGGTEFEKFESLPTTGSGEKVLIKTFELNDAMNNLGMVNPTVAYNVDFRLKAFINDSVPELYSNTVNMAITPYSGARTQVYFVGDIFDNGWNNNDPSMRIFADDDVNNMLFTYTGFVKAGSAFKIIQTPGDWGIQWGYDSDGALSNDGGSGNIEGFTQDGYYTITLDLAGNKYSIEPYTGATTEYKQISLIGDFNDWGGDLDLQQASYDKHIWIGEKIEIPSDGGLKLRADHDWAVSFGGSNSLWNDKQGQFAKFDGGDNVKVSAGTYFIKFNDLTKHIILLAE	not soluble
MGSDKIHHHHHHKEKSTVAVLPFTVHSADNIDYVKQGISDMLTSRIAVEGKISVASKDLVQEAIKGRTTRDLTPEEMNALGKKLNVDYIVSGSITKIGNSLSIDGKLMDLAAARSTVGIFAQTQGLDEVIPKINDFSQRIVQHITGSTPSDFSSPAMELPAPSSAAAVADKPPQRSRESEIISGMRTSRKGTFTSIINPDFIDAARPLDRKGFWMSQKFPTEFRGMAIGDVNGDKLQEVVVIDRSNLYVYQRKGDDFKLLQKIPGKTHDNYLAVDVADINQNGIMEIFVTNMNRNTLASFVTEWQDGKYIQTAKDLRLFLRVIEPSIAAPQLLGQGFGLDNPFNTPIHEVIWDGKHYRAATRMKIPEGLSVYGLTLDDLGMGGSEKVISLDDYDYIRIYQQTEKPLSRLNVFGGSDELIWKSDEVFGGSNTYVEHAGSTVPGDEVRRTYINLRILTYDINKDGKKELILVKNLSAVGRVLKNVKLFTSSEVYNLEWDGLGLLENWKTRKINGYVADYQFKDIDNDGQNEIVLALVLSTGATLQNRSAFVAYKLSPQQ	not soluble
